Values joined by “and” are separate entries in the source; they are usually repeats but may differ in a detail not shown here. Equal entries are not always repeated. Values belong to the substance of their own block, whether it stands above or below them.
Tests used:
[1] = molecular target: D3H44 light chain Q124E_Q160E_T180E with N-terminal HA or FLAG tag; test: LCCA (SPR tag readout), L1:L2 DNA 1:3, normalized to 1:1; competing light chain m17
[2] = molecular target: D3H44 light chain F116C_Q124R_T178R with N-terminal HA or FLAG tag; test: LCCA (SPR tag readout), L1:L2 DNA 1:3, normalized to 1:1; competing light chain m18
[3] = molecular target: tissue factor (TF) antigen (UniProt P13726); test: SPR (ProteOn XPR36), Fab captured on anti-penta-His surface, TF injected as analyte, 1:1 fit; reference wild-type D3H44 Fab
[4] = molecular target: tissue factor (TF) antigen (UniProt P13726); test: SPR (ProteOn XPR36), Fab captured on anti-penta-His surface, TF injected as analyte, 1:1 fit
[5] = molecular target: D3H44 light chain Q38R_Q124R_Q160K_T178R; test: LCCA, SPR tag readout, L1:L2 DNA 1:3 normalized to 1:1; competitor m19
[6] = molecular target: D3H44 light chain Q38E_Q124E_Q160E_T180E; test: LCCA, SPR tag readout, L1:L2 DNA 1:3 normalized to 1:1; competitor m26
[7] = molecular target: D3H44 light chain Q124E_V133G_S176D_T178D_T180E; test: LCCA (co-expression, SPR tag read-out), L1:L2 DNA 1:3 normalised to 1:1; competing light chain m7
[8] = molecular target: D3H44 light chain Q124E_V133G_S176D_T178E_T180E; test: as above
[9] = molecular target: D3H44 light chain V133G_S176D_T178D_T180E; test: as above
[10] = molecular target: D3H44 light chain V133G_S176D_T178E_T180E; test: as above
[11] = molecular target: D3H44 light chain V133G_Q160E_S176D_T180E; test: LCCA (co-expression, SPR tag read-out), L1:L2 DNA 1:9 normalised to 1:1; competing light chain m8
[12] = molecular target: D3H44 light chain Q124E_V133G_S176D_T178E_T180E; test: as above
[13] = molecular target: D3H44 light chain Q124E_V133G_S176D_T178D_T180E; test: LCCA (co-expression, SPR tag read-out), L1:L2 DNA 1:3 normalised to 1:1; competing light chain m8
[14] = molecular target: D3H44 light chain V133G_Q160E_S176D_T180E; test: as above
[15] = molecular target: D3H44 light chain Q124E_V133G_S176D_T178E_T180E; test: as above
[16] = molecular target: D3H44 light chain V133G_S176D_T178D_T180E; test: as above
[17] = molecular target: D3H44 light chain V133G_S176D_T178E_T180E; test: as above
[18] = molecular target: tissue factor (TF) antigen (human (from the antibody's name 'anti-human tissue factor'; not stated for the antigen lot in the assay)) (UniProt P13726); test: SPR (ProteOn XPR36), Fab captured on anti-penta His, TF analyte; against wild-type D3H44 Fab
[19] = molecular target: tissue factor (TF) antigen (human (from the antibody's name 'anti-human tissue factor'; not stated for the antigen lot in the assay)) (UniProt P13726); test: SPR (ProteOn XPR36): Fab captured via His tag on anti-penta His surface, TF injected, 1:1 fit
[20] = molecular target: D3H44 Fab heavy chain L124W_L143F_K145T_Q179E, ABD2-His6 tagged; test: LCCA, SPR of light chain tags; L1:L2 DNA 1:3 normalized to 1:1; competing light chain m14
[21] = molecular target: tissue factor (TF) antigen (UniProt P13726); test: SPR (ProteOn XPR36), Fab captured on anti-penta-His surface, TF injected as analyte, 1:1 fit; marked * (estimated from a Fab that differs only in the L chain tag)
[22] = molecular target: tissue factor (TF) antigen (UniProt P13726); test: SPR (ProteOn XPR36), Fab captured on anti-penta-His surface, TF injected as analyte, 1:1 fit; marked * (estimated from a Fab that differs only in the L chain tag); reference wild-type D3H44 Fab
[23] = molecular target: D3H44 Fab heavy chain L143E_K145T_Q179E, ABD2-His6 tagged; test: LCCA, SPR of light chain tags; L1:L2 DNA 1:3 normalized to 1:1; competing light chain m19
[24] = molecular target: D3H44 Fab heavy chain S186R, ABD2-His6 tagged; test: as above
[25] = molecular target: D3H44 Fab heavy chain L143E_K145T_Q179D, ABD2-His6 tagged; test: as above
[26] = molecular target: D3H44 Fab heavy chain S186K, ABD2-His6 tagged; test: as above
[27] = molecular target: D3H44 Fab heavy chain L143E_K145T_Q179E, ABD2-His6 tagged; test: LCCA, SPR of light chain tags; L1:L2 DNA 1:3 normalized to 1:1; competing light chain m16
[28] = molecular target: D3H44 Fab heavy chain Q179R, ABD2-His6 tagged; test: as above
[29] = molecular target: D3H44 Fab heavy chain Q179K, ABD2-His6 tagged; test: as above
[30] = molecular target: D3H44 Fab heavy chain L143E_K145T_Q179E, ABD2-His6 tagged; test: LCCA, SPR of light chain tags; L1:L2 DNA 1:9 normalized to 1:1; competing light chain m16
[31] = molecular target: D3H44 Fab heavy chain Q179R, ABD2-His6 tagged; test: as above
[32] = molecular target: D3H44 Fab heavy chain Q179K, ABD2-His6 tagged; test: as above
[33] = molecular target: D3H44 light chain Q124E_V133D with N-terminal HA or FLAG tag; test: LCCA (SPR tag readout), L1:L2 DNA 1:3, normalized to 1:1; competing light chain m9
[34] = molecular target: D3H44 light chain Q124R_T178R with N-terminal HA or FLAG tag; test: LCCA (SPR tag readout), L1:L2 DNA 1:9, normalized to 1:1; competing light chain m16
[35] = molecular target: D3H44 light chain Q124R_T178R with N-terminal HA or FLAG tag; test: LCCA (SPR tag readout), L1:L2 DNA 1:3, normalized to 1:1; competing light chain m16
[36] = molecular target: D3H44 light chain Q124E_V133D with N-terminal HA or FLAG tag; test: LCCA (SPR tag readout), L1:L2 DNA 1:9, normalized to 1:1; competing light chain m9
[37] = molecular target: D3H44 light chain Q124E_Q160E_T180E_C214S; test: LCCA, SPR tag readout, L1:L2 DNA 1:9 normalized to 1:1; competitor m20
[38] = molecular target: D3H44 light chain P44F_S131K; test: LCCA, SPR tag readout, L1:L2 DNA 1:3 normalized to 1:1; competitor m22
[39] = molecular target: D3H44 light chain Q124E_Q160E_T180E_C214S; test: LCCA, SPR tag readout, L1:L2 DNA 1:3 normalized to 1:1; competitor m20
[40] = molecular target: D3H44 light chain Q38E_Q124E_Q160E_T180E; test: as above
[41] = molecular target: D3H44 light chain P44F_S131K; test: LCCA, SPR tag readout, L1:L2 DNA 1:3 normalized to 1:1; competitor m19
[42] = molecular target: D3H44 light chain P44F_S131K; test: LCCA, SPR tag readout, L1:L2 DNA 1:9 normalized to 1:1; competitor m22

Change in median KD of h1l1 Fab heterodimer compared to wild type (-(log(KD design)-log(KD wt))) (log(KD) difference) [3]: -0.12
Kd [4]: 0.2 nM
Substance: D3H44 H1L1 Fab heterodimer, H1 L124E_L143E_K145T, L1 Q124K_V133G_Q160K_S176R

H1L1:H1L2 normalized median ratio [5]: 97%
H1L1:H1L2 normalized median scalar value ln(r1/f1) [5]: 3.58 and 1.58
H1L1:H1L2 normalized median ratio [6]: 3%
Substance: D3H44 Fab heavy chain Q39E_L143E_K145T_Q179E

H1L1:H1L2 normalized median ratio [7]: 4 parts of 100
H1L1:H1L2 normalized median ratio [8]: 5 parts of 100
H1L1:H1L2 normalized median ratio [9]: 5 parts of 100
H1L1:H1L2 normalized median ratio [10]: 5 parts of 100
H1L1:H1L2 normalized median ratio [11]: 5 parts of 100
H1L1:H1L2 normalized median ratio [12]: 3 parts of 100
H1L1:H1L2 normalized median ratio [13]: 4 parts of 100
H1L1:H1L2 normalized median ratio [14]: 4 parts of 100
H1L1:H1L2 normalized median ratio [15]: 3 parts of 100
H1L1:H1L2 normalized median ratio [16]: 4 parts of 100
H1L1:H1L2 normalized median ratio [17]: 3 parts of 100
Substance: D3H44 Fab heavy chain L124E_K145T_Q179E

H2L2:H2L1 normalized median ratio [20]: 31%
Substance: D3H44 light chain Q124E_V133W_S176T_T178L_T180E, HA or FLAG tagged

H1L1:H1L2 normalized median ratio [23]: 84%
H1L1:H1L2 normalized median scalar value ln(r1/f1) [23]: 1.69
H2L2:H2L1 normalized median ratio [24]: 3%
H1L1:H1L2 normalized median ratio [25]: 84%
H1L1:H1L2 normalized median scalar value ln(r1/f1) [25]: 1.63
H2L2:H2L1 normalized median ratio [26]: 3%
Substance: D3H44 light chain Q124R_T178K, HA or FLAG tagged

H1L1:H1L2 normalized median ratio [27]: 14%
H2L2:H2L1 normalized median ratio [28]: 97%
H2L2:H2L1 normalized median ratio [29]: 96%
H1L1:H1L2 normalized median ratio [30]: 15%
H2L2:H2L1 normalized median ratio [31]: 85%
H2L2:H2L1 normalized median ratio [32]: 89%
Substance: D3H44 light chain Q124E_T178E, HA or FLAG tagged

H2L2:H2L1 normalized median ratio [7]: 92 parts of 100
H2L2:H2L1 normalized median ratio [9]: 91 parts of 100
H2L2:H2L1 normalized median ratio [13]: 91 parts of 100
H2L2:H2L1 normalized median ratio [16]: 90 parts of 100
Substance: D3H44 Fab heavy chain L124R_S186K

Further lines, the substance ahead of its results:

Substance: D3H44 Fab heavy chain A139C_L143E_K145T_Q179E with C-terminal ABD2-His6 tag
H1L1:H1L2 normalized median ratio [1]: 11%
H1L1:H1L2 normalized median ratio [2]: 89%
H1L1:H1L2 normalized median scalar value ln(r1/f1) [2]: 2.08

Substance: D3H44 H1L1 Fab heterodimer, H1 L124E_L143E_K145M, L1 Q124K_V133G_Q160K_S176R
Change in median KD of h1l1 Fab heterodimer compared to wild type (-(log(KD design)-log(KD wt))) (log(KD) difference) [3]: -0.26
Kd [4]: 0.28 nM

Substance: D3H44 Fab heterodimer, H1 A139C_L143E_K145T_Q179E / L1 F116C_Q124R_T178R (H1L1 Fab of LCCA set 9049)
Change in median values of KD of h1l1 Fab heterodimer compared to wild type (-(log(KD design)-log(KD wt))) [18]: -0.01
Kd [19]: 0.16 nM

Substance: D3H44 H1L1 Fab heterodimer, H1 L124E_L143E_K145T, L1 Q124K_V133G_S176R_T178R
Kd [21]: 0.18 nM
Change in median KD of h1l1 Fab heterodimer compared to wild type (-(log(KD design)-log(KD wt))) (log(KD) difference) [22]: -0.07

Substance: D3H44 Fab heavy chain L124R_Q179K
H2L2:H2L1 normalized median ratio [8]: 93 parts of 100
H2L2:H2L1 normalized median ratio [10]: 93 parts of 100
H2L2:H2L1 normalized median ratio [11]: 94 parts of 100
H2L2:H2L1 normalized median ratio [12]: 91 parts of 100
H2L2:H2L1 normalized median ratio [14]: 91 parts of 100
H2L2:H2L1 normalized median ratio [15]: 92 parts of 100
H2L2:H2L1 normalized median ratio [17]: 92 parts of 100

Substance: D3H44 Fab heavy chain L143K with C-terminal ABD2-His6 tag
H2L2:H2L1 normalized median ratio [33]: 92%
H2L2:H2L1 normalized median ratio [34]: 8%
H2L2:H2L1 normalized median ratio [35]: 8%
H2L2:H2L1 normalized median ratio [36]: 92%

Substance: D3H44 Fab heterodimer, H1 L124E_L143E_K145T / L1 Q124K_V133G_Q160K_S176R (H1L1 Fab of LCCA set 9277)
Change in median values of KD of h1l1 Fab heterodimer compared to wild type (-(log(KD design)-log(KD wt))) [18]: -0.12
Kd [19]: 0.2 nM

Substance: D3H44 Fab heavy chain L45P_K145T_Q179E
H1L1:H1L2 normalized median ratio [37]: 7%
H2L2:H2L1 normalized median ratio [37]: 7%
H1L1:H1L2 normalized median ratio [38]: 96%
H1L1:H1L2 normalized median scalar value ln(r1/f1) [38]: 3.19
H2L2:H2L1 normalized median ratio [38]: 96%
H1L1:H1L2 normalized median ratio [39]: 4%
H2L2:H2L1 normalized median ratio [39]: 4%
H1L1:H1L2 normalized median ratio [40]: 6%
H2L2:H2L1 normalized median ratio [40]: 6%
H1L1:H1L2 normalized median ratio [41]: 94%
H1L1:H1L2 normalized median scalar value ln(r1/f1) [41]: 2.83
H2L2:H2L1 normalized median ratio [41]: 94%
H1L1:H1L2 normalized median ratio [42]: 93%
H1L1:H1L2 normalized median scalar value ln(r1/f1) [42]: 2.54
H2L2:H2L1 normalized median ratio [42]: 93%
